Data published in PMC7505563.

Biological target: T1, MatP, tag cleaved (Escherichia coli, UniProt P0A8N0 1-150)
T1 sequence: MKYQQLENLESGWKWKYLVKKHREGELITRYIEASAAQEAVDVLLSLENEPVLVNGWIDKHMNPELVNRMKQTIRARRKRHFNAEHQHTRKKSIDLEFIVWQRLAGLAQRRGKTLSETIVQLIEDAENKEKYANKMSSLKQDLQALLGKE
Test: crystal structure

B1: matS 19mer (dsDNA)
DNA 1: TTCGTGACATTGTCACGAA
DNA 2: TTCGTGACAATGTCACGAA
- binding result: binds
